The results in this text go back to patent US20150344570A1 (published 2015).

First the molecules themselves.
T1: FcγRIIa H (FcγRIIa type H, His at position 131), extracellular domain with C-terminal His tag (human, UniProt P12318 34-217)
T1 construct: extracellular domain; also called FcgRIIa H; 2aH
T1 sequence (looked up): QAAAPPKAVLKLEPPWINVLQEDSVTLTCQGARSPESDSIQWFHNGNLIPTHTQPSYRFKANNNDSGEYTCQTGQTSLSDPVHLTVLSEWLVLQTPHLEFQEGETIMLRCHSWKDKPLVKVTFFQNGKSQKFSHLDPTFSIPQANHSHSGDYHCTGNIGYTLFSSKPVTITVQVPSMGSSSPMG

B1: GpH7-A5/GpH7-B3 variant G236_03V/GpL16-k0 (antibody, human IgG1, kappa)
heavy 1: not shown
heavy 2: not shown
light: DIVMTQSPLSLPVTPGEPASISCQASESLVHSNRNTYLHWYLQKPGQSPQLLIYKVSNRFSGVPDRFSGSGSGTDFTLKISRVEAEDVGVYYCSQNTHVPPTFGQGTKVEIERTVAAPSVFIFPPSDEQLKSGTASVVCLLNNFYPREAKVQWKVDNALQSGNSQESVTEQDSKDSTYSLSSTLTLSKADYEKHKVYACEVTHQGLSSPVTKSFNRGEC
notes: one H chain mutated; also called He Ab
B2: GpH7-A5/GpH7-B3 variant K326_19Q/GpL16-k0 (antibody, human IgG1, kappa)
heavy 1: not shown
heavy 2: not shown
light: B1 light
notes: as for B1
B3: GpH7-A5/GpH7-B3 variant I332_14T/GpL16-k0 (antibody, human IgG1, kappa)
heavy 1: not shown
heavy 2: not shown
light: B1 light
notes: as for B1
B4: GpH7-A5/GpH7-B3 variant I336_06M/GpL16-k0 (antibody, human IgG1, kappa)
heavy 1: not shown
heavy 2: not shown
light: B1 light
notes: as for B1
B5: GpH7-A5/GpH7-B3 variant I332_19Q/GpL16-k0 (antibody, human IgG1, kappa)
heavy 1: not shown
heavy 2: not shown
light: B1 light
notes: as for B1
B6: GpH7-A5/GpH7-B3 variant G236_07I/GpL16-k0 (antibody, human IgG1, kappa)
heavy 1: not shown
heavy 2: not shown
light: B1 light
notes: as for B1
B7: GpH7-A5/GpH7-B3 variant K334_03V/GpL16-k0 (antibody, human IgG1, kappa)
heavy 1: not shown
heavy 2: not shown
light: B1 light
notes: as for B1
B8: GpH7-A5/GpH7-B3 variant K334_14T/GpL16-k0 (antibody, human IgG1, kappa)
heavy 1: not shown
heavy 2: not shown
light: B1 light
notes: as for B1
B9: GpH7-A5/GpH7-B3 variant I336_08L/GpL16-k0 (antibody, human IgG1, kappa)
heavy 1: not shown
heavy 2: not shown
light: B1 light
notes: as for B1
B10: GpH7-A5/GpH7-B3 variant I332_16H/GpL16-k0 (antibody, human IgG1, kappa)
heavy 1: not shown
heavy 2: not shown
light: B1 light
notes: as for B1
B11: GpH7-A5/GpH7-B3 variant K334_08L/GpL16-k0 (antibody, human IgG1, kappa)
heavy 1: not shown
heavy 2: not shown
light: B1 light
notes: as for B1
B12: GpH7-A5/GpH7-B3 variant I332_13S/GpL16-k0 (antibody, human IgG1, kappa)
heavy 1: not shown
heavy 2: not shown
light: B1 light
notes: as for B1
B13: GpH7-A5/GpH7-B3 variant H268_10E/GpL16-k0 (antibody, human IgG1, kappa)
heavy 1: not shown
heavy 2: not shown
light: B1 light
notes: as for B1
B14: GpH7-A5/GpH7-B3 variant K326_06M/GpL16-k0 (antibody, human IgG1, kappa)
heavy 1: not shown
heavy 2: not shown
light: B1 light
notes: as for B1
B15: GpH7-A5/GpH7-B3 variant L328_02A/GpL16-k0 (antibody, human IgG1, kappa)
heavy 1: not shown
heavy 2: not shown
light: B1 light
notes: as for B1
B16: GpH7-A5/GpH7-B3 variant K334_16H/GpL16-k0 (antibody, human IgG1, kappa)
heavy 1: not shown
heavy 2: not shown
light: B1 light
notes: as for B1
B17: GpH7-A5/GpH7-B3 variant K334_07[ (read as K334_07I)/GpL16-k0 (antibody, human IgG1, kappa)
heavy 1: not shown
heavy 2: not shown
light: B1 light
notes: as for B1
B18: GpH7-A5/GpH7-B3 variant I332_03V/GpL16-k0 (antibody, human IgG1, kappa)
heavy 1: not shown
heavy 2: not shown
light: B1 light
notes: as for B1
B19: GpH7-A5/GpH7-B3 variant K326_09D/GpL16-k0 (antibody, human IgG1, kappa)
heavy 1: not shown
heavy 2: not shown
light: B1 light
notes: as for B1
B20: GpH7-A5/GpH7-B3 variant I332_04F/GpL16-k0 (antibody, human IgG1, kappa)
heavy 1: not shown
heavy 2: not shown
light: B1 light
notes: as for B1
B21: GpH7-A5/GpH7-B3 variant G236_10E/GpL16-k0 (antibody, human IgG1, kappa)
heavy 1: not shown
heavy 2: not shown
light: B1 light
notes: as for B1
B22: GpH7-A5/GpH7-B3 variant I332_06M/GpL16-k0 (antibody, human IgG1, kappa)
heavy 1: not shown
heavy 2: not shown
light: B1 light
notes: as for B1
B23: GpH7-A5/GpH7-B3 variant K334_04F/GpL16-k0 (antibody, human IgG1, kappa)
heavy 1: not shown
heavy 2: not shown
light: B1 light
notes: as for B1
B24: GpH7-A5/GpH7-B3 variant K326_10E/GpL16-k0 (antibody, human IgG1, kappa)
heavy 1: not shown
heavy 2: not shown
light: B1 light
notes: as for B1
B25: GpH7-A5/GpH7-B3 variant Q295_07I/GpL16-k0 (antibody, human IgG1, kappa)
heavy 1: not shown
heavy 2: not shown
light: B1 light
notes: as for B1
B26: GpH7-A5/GpH7-B3 variant H268_18N/GpL16-k0 (antibody, human IgG1, kappa)
heavy 1: not shown
heavy 2: not shown
light: B1 light
notes: as for B1
B27: GpH7-A5/GpH7-B3 variant I332_09D/GpL16-k0 (antibody, human IgG1, kappa)
heavy 1: not shown
heavy 2: not shown
light: B1 light
notes: as for B1
B28: GpH7-A5/GpH7-B3 variant P271_01G/GpL16-k0 (antibody, human IgG1, kappa)
heavy 1: not shown
heavy 2: not shown
light: B1 light
notes: as for B1
B29: GpH7-A5/GpH7-B3 variant I332_15Y/GpL16-k0 (antibody, human IgG1, kappa)
heavy 1: not shown
heavy 2: not shown
light: B1 light
notes: as for B1
B30: GpH7-A5/GpH7-B3 variant H268_09D/GpL16-k0 (antibody, human IgG1, kappa)
heavy 1: not shown
heavy 2: not shown
light: B1 light
notes: as for B1
B31: GpH7-A5/GpH7-B3 variant L328_13S/GpL16-k0 (antibody, human IgG1, kappa)
heavy 1: not shown
heavy 2: not shown
light: B1 light
notes: as for B1
B32: GpH7-A5/GpH7-B3 variant K334_15Y/GpL16-k0 (antibody, human IgG1, kappa)
heavy 1: not shown
heavy 2: not shown
light: B1 light
notes: as for B1
B33: GpH7-A5/GpH7-B3 variant L328_06M/GpL16-k0 (antibody, human IgG1, kappa)
heavy 1: not shown
heavy 2: not shown
light: B1 light
notes: as for B1
B34: GpH7-A5/GpH7-B3 variant K326_14T/GpL16-k0 (antibody, human IgG1, kappa)
heavy 1: not shown
heavy 2: not shown
light: B1 light
notes: as for B1
B35: GpH7-A5/GpH7-B3 variant L328_14T/GpL16-k0 (antibody, human IgG1, kappa)
heavy 1: not shown
heavy 2: not shown
light: B1 light
notes: as for B1
B36: GpH7-A5/GpH7-B3 variant I332_10E/GpL16-k0 (antibody, human IgG1, kappa)
heavy 1: not shown
heavy 2: not shown
light: B1 light
notes: as for B1
B37: GpH7-A5/GpH7-B3 variant I332_18N/GpL16-k0 (antibody, human IgG1, kappa)
heavy 1: not shown
heavy 2: not shown
light: B1 light
notes: as for B1
B38: GpH7-A5/GpH7-B3 variant L235_20W/GpL16-k0 (antibody, human IgG1, kappa)
heavy 1: not shown
heavy 2: not shown
light: B1 light
notes: as for B1
B39: GpH7-A5/GpH7-B3 variant H268_13S/GpL16-k0 (antibody, human IgG1, kappa)
heavy 1: not shown
heavy 2: not shown
light: B1 light
notes: as for B1
B40: GpH7-A5/GpH7-B3 variant Q295_05P/GpL16-k0 (antibody, human IgG1, kappa)
heavy 1: not shown
heavy 2: not shown
light: B1 light
notes: as for B1

This assay deals with T1, FcγRIIa H (FcγRIIa type H, His at …). Nature of the assay: SPR Biacore, relative binding, GpH7-A5/GpH7-B3/GpL16-k0 (HeCon Ab)=100. As for the experimental part:
Analysis of interaction between objective antibody and the FcγR was carried out using Biacore T100 (GE Healthcare). HBS-EP+ (GE Healthcare) was used as the running buffer, and the measurement temperature was set to 25° C. Chips produced by immobilizing the antigen peptide by the amine coupling method to a Series S Sencor Chip CM5 (GE Healthcare), or alternatively, chips produced by allowing preliminarily biotinylated antigen peptides to interact with and immobilize onto a Series S Sensor Chip SA (certified) (GE Healthcare) were used. Antibodies of interest were captured onto an antigen peptide-immobilized chip, and allowed to interact to each FcγR diluted with running buffer. To regenerate and repeatedly use the chip, the antibodies captured on the chip were washed off by reacting 10 mM glycine-HCl, pH 1.5.
In general terms: Surface plasmon resonance follows binding to a sensor surface in real time, without labels.
Consider B1, for which the He/Con_2aH was 119 % of control.

With B2, the He/Con_2aH is 101 % of control.

Take B3: the He/Con_2aH is 115 % of control.

Take B4: the He/Con_2aH was 106 % of control.

On to B5, for which the He/Con_2aH was 108 % of control.

B6: the He/Con_2aH was 115 % of control.

Take B7: the He/Con_2aH is 109 % of control.

As to B8, the He/Con_2aH is 103 % of control.

For the molecule B9, the He/Con_2aH was 106 % of control.

For B10, the He/Con_2aH is 109 % of control.

As for B11, the He/Con_2aH was 104 % of control.

B12: the He/Con_2aH was 110 % of control.

Turning to B13, the He/Con_2aH was 124 % of control.

On to B14, for which the He/Con_2aH is 103 % of control.

Consider B15, for which the He/Con_2aH is 130 % of control.

B16: the He/Con_2aH is 104 % of control.

B17: the He/Con_2aH was 110 % of control.

B18: the He/Con_2aH was 105 % of control.

For the molecule B19, the He/Con_2aH was 110 % of control.

On to B20, for which the He/Con_2aH is 104 % of control.

For B21, the He/Con_2aH is 111 % of control.

With B22, the He/Con_2aH is 110 % of control.

As for B23, the He/Con_2aH is 106 % of control.

For B24, the He/Con_2aH is 102 % of control.

As for B25, the He/Con_2aH is 102 % of control.

In the case of B26, the He/Con_2aH is 112 % of control.

With B27, the He/Con_2aH is 118 % of control.

As to B28, the He/Con_2aH was 107 % of control.

B29: the He/Con_2aH was 115 % of control.

On to B30, for which the He/Con_2aH is 133 % of control.

In the case of B31, the He/Con_2aH was 123 % of control.

For the molecule B32, the He/Con_2aH was 106 % of control.

Turning to B33, the He/Con_2aH is 104 % of control.

With B34, the He/Con_2aH was 114 % of control.

On to B35, for which the He/Con_2aH is 116 % of control.

Take B36: the He/Con_2aH is 108 % of control.

Turning to B37, the He/Con_2aH was 110 % of control.

For B38, the He/Con_2aH was 118 % of control.

As to B39, the He/Con_2aH was 112 % of control.

In the case of B40, the He/Con_2aH is 103 % of control.
